In patent publication US20240067751A1 (KEYMED BIOSCIENCES, published 2024):

B1: chimeric antibody 10L3 (antibody, V domains shown)
VH: DVQLQESGPGLVKPSQSLSLTCTVTGYSITSDYAWNWIRQFPGNKLEWMGYISYSGRTSYNPSLKSRISITRDTSKNQFFLQLNSVTTEDTATYYCAKLGGGHGMDYWGQGTSVTVSS
VL: IVMTQSQKFMSTSVGDRVSVTCKASQNVDTNVAWYQQKPGQSPKALIYSASYRYSGVPDRFTGSGSGTDFTLTISNVQSEDLAEYFCLQYNSYLTFGSGTKLELK
B2: chimeric antibody 4F18 (antibody, V domains shown)
VH: EVQLQESGPGLVKPSQSLSLACTVTGYSITSDYAWHWIRQFPGNKLEWMGFISYSGRTNYNPPLTSRISITRDTSKNQFFLQLNSVTTEDTATYYCARSYDYWFGYWGQGTLVTVSA
VL: NVLMTQTPLSLPVSLGDQASISCRSSQSLVHSNGNTYLEWYMQKPGQSPKLLIYTVSRRFSGVPDRFSGSGSGTDFTLKISRVEAEDLGVYYCFQGSHVPVTFGAGTKLELK
notes: to be rechecked
B3: chimeric antibody 25L15 (antibody, V domains shown)
VH: KVKLVESGGDLVKPGGSLKISCAASGFTFSNYAMSWIRQTPDKRLEWVATVSSGGPYTYYPDSVKGRFTISRDNAENTLYLQMSSLRSDDTAIYYCARQIYSDYDVTYWGQGTLVTVSA
VL: QIVLSQSPAILSASPGETVTMTCRVSSSVSYMYWLQQKPGSSPKPWIYATSNLASGVPARFSGSGSGTSYSLTITRVEAEDAATYYCQQWSFRPWTFGGGTKLEIK
B4: chimeric antibody 1B2 (antibody, V domains shown)
VH: DVQLQESGPGLVKPSQSLSLTCTVTGYSITSDYAWNWIRQFSGDKLEWMGYISYSGSTSYNPSLKSRISITRDTSKNQFFLHLSSVTTEDTATYFCARYWGDYWGHGTTLTVSS
VL: DSVMTQSQKFMSTSVGDRVSVTCKASHNVGTNVAWFQQKPGQSPKGLIYSASYRSSGVPDRFTGSGSGTDFTLTISNVQSEDLAEYFCLQYNSNPLTFGGGTKLEVK
B5: chimeric antibody 28O14 (antibody, V domains shown)
VH: QVQLQQSGTELARPGASVRMSCKASGYTFRSHTMHWVKQRPGQGLEWIGYINPSTGYINYNQKFKDKATLTADKSSSTAYMQLSSLTSEDSAVYYCARSNYSYYYGMDYWGQGTSVTVSS
VL: DIVMTQSHKFMSTSVGDRVTITCKASQDVNTAVAWYQQKPGQSPKLLIYSASYRYTGVPDRFTGSGSGTDFTFTISSLQAEDLAVYYCQQHYNIPLTFGAGTKLELK
B6: Fab antibody 14F11 (Fab, V domains shown)
VH: QVQLQQSGPQLLRPGASVKISCKASGFSFTNHWIHWVKQRPGQGLEWIGMIDPSDSETGLNQKFRDKATLTVDKSSSTAYMHLNSPTSEDSAVYYCARLGIHDGYYIYAMDFWGQGTSVTVSS
VL: NIVMTQSPKSMSMSVGERVTLSCKASENVGTYVSWYQQKPEQSPKLLIYGASNRYTGVPDRFTGSGSATDFTLTISSVQAEDLADYHCGQSYSYPLTFGAGTKLELK
notes: Purified murine Fab with Flag tag from the phage display library; also called mAb 14F11
B7: Fab antibody 16B11 (Fab, V domains shown)
VH: QMQLQESGPGLVKPSQSLSLTCTVTGYSITSDYAWNWIRQFPGNKLEWMGYISYSGRTSYNPSLKSRISITRDTSKNQFFLQLNSVTTEDTATYYCARHYGDYWGQGTTLTVSS
VL: DIVMTQSQKLMSTSVGDRVSVTCKASQNVGTNVAWYQQKPGQSPKALIYSASYRNSGVPDRFTGSGSGTDFTLTISNVQSEDLAEYFCQQFNTNPLTFGSGTKLEIK
notes: Purified murine Fab with Flag tag from the phage display library; also called mAb 16B11
B8: chimeric antibody 16A17 (antibody, V domains shown)
VH: DVQLQESGPGLVKPSQSLSLTCTVTGYSITSDYAWKWIRQFPGNKLEWMGYISYSGSTSYHPSLKGRISITRDTSKNQFFLQLNSVTADDTATYYCAILGYYAMDYWGQGTSVTVSS
VL: DIVMTQSQKFMSTSVGDRVSITCKASQNVRVDVAWYQQKSGQSPRALIYLASNRHTGVPDRFTGSGSGTDFTLTITNVQSEDLADYFCPQHWSYPLTFGGGTKLEIK
B9: chimeric antibody 3B9 (antibody, V domains shown)
VH: DVQLQESGPGLVRPSQSLSLTCTVTGYSITSDYAWNWIRQFPGNKLEWMGYISYSGRTSYNPSLKSRLSITRDTSKNQFFLQLNSVSSADTATYYCAIISTAVDFDYWGQGTTLTVSS
VL: QTVLTQSPAIMSASLGERVTMTCTASSSVSSSYLLWYQQKPGSSPKLWIYSTSKLASGVPVRFSGSGSGTSYSLTISSMEADDAATYYCLQYNRSPLTFGAGTKLELK

Experiments:
[1] = target: T1, rat MASP-2 D4-6 recombinant protein (rat, UniProt Q9JJS8 298-685); experiment: ELISA, antigen coated, chimeric IgG titrated, anti-human Fc-HRP
T1 construct: Made 'similarly' to the human protein (N-terminal his6 tag)
T1 sequence (Q9JJS8 other isoform, or with tags, fused parts or gaps limits assumed): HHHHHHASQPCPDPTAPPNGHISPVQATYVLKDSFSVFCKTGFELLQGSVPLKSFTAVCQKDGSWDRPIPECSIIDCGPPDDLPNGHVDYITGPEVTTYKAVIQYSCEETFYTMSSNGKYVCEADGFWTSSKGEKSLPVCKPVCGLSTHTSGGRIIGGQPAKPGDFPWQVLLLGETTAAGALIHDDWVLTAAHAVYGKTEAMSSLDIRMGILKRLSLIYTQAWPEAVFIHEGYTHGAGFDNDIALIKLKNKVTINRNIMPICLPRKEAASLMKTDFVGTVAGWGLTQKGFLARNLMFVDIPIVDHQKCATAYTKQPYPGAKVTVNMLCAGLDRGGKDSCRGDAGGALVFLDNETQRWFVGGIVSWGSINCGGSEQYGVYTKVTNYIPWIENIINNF

[2] = target: T2, Cynomolgus monkey MASP-2 D4-6 recombinant protein (Cynomolgus monkey, UniProt O00187 298-686 (human entry), limits assumed); experiment: as above
T2 construct: Made 'similarly' to the human protein (N-terminal his6 tag)
T2 sequence (O00187 other isoform, or with tags, fused parts or gaps limits assumed): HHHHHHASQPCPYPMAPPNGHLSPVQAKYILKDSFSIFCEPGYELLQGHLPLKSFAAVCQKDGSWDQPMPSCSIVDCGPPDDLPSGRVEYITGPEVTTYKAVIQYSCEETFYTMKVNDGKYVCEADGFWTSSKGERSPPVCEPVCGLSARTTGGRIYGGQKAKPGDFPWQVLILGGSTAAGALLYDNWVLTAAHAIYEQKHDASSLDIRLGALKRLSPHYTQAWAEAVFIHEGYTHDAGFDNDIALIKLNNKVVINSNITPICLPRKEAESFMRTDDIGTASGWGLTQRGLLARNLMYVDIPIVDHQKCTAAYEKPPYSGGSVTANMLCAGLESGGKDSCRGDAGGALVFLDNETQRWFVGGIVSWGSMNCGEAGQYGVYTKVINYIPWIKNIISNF

[3] = target: T3, mouse MASP-2 D4-6 recombinant protein (mouse, UniProt Q91WP0 298-685); experiment: as above
T3 construct: Made 'similarly' to the human protein (N-terminal his6 tag)
T3 sequence (Q91WP0 other isoform, or with tags, fused parts or gaps limits assumed): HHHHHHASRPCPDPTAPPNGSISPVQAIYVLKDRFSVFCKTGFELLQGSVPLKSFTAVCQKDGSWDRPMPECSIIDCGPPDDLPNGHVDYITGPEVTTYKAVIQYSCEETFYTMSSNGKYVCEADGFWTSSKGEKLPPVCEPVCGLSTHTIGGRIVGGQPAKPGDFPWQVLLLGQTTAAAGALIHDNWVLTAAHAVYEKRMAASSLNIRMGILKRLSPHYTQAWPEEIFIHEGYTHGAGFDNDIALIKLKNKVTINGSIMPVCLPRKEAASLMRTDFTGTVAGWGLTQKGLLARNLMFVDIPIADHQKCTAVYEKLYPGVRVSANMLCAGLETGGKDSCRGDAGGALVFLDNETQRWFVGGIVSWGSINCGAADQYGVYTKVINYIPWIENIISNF

[4] = target: T4, human MASP-2 D4-6 recombinant protein (human, UniProt O00187 298-686); experiment: as above
T4 construct: his6 tag fused at the N-terminus, made in HEK293E; also called enzymatic activity domains CCP1-CCP2-SP of human MASP-2
T4 sequence (O00187 other isoform, or with tags, fused parts or gaps limits assumed): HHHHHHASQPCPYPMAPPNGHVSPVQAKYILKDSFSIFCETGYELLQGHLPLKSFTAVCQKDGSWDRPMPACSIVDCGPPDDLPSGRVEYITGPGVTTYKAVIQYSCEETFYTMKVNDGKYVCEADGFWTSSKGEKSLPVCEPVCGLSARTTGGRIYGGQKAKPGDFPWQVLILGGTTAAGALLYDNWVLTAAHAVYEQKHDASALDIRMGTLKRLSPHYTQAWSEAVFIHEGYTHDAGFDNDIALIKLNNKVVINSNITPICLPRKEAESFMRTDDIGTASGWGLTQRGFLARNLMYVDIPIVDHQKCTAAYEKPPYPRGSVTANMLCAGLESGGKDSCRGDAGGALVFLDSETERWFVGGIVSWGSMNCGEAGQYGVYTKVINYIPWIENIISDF

[5] = target: T2, Cynomolgus monkey MASP-2 D4-6 …; experiment: SPR Biacore T200, antibody on Protein A chip, antigen as analyte, 1:1 fit
Method: (§1) Surface plasmon resonance technology (SPR/Biacore T200) was used to capture 0.1 μg/ml of the antibody on the surface of the Protein A chip, with a capture time of 40 seconds and a flow rate of 10 μl/min. The chip was washed with buffer until the baseline leveled off, then gradient-diluted antigen was flowed through the chip at the flow rate of 30 μl/min, with a binding time of 120 sec and a dissociation time of 600 sec. The equilibrium dissociation constant (KD) was obtained by fitting in Langmuir 1:1 kinetics mode.

[6] = target: T3, mouse MASP-2 D4-6 recombinant protein; experiment: as above
Method: as §1

[7] = target: T4, human MASP-2 D4-6 recombinant protein; experiment: as above
Method: as §1

[8] = target: T1, rat MASP-2 D4-6 recombinant protein; experiment: as above
Method: as §1

[9] = target: T1, rat MASP-2 D4-6 recombinant protein; experiment: SPR Biacore T200, Flag-tagged Fab captured via anti-Flag antibody on Protein A chip, antigen as analyte, 1:1 fit
Method: (§2) The surface plasmon resonance (SPR/Biacore T200) technique was used to capture the anti-Flag antibody with Protein A chip. 10 μg/ml purified Fab antibody containing Flag tag was captured on the chip surface, with a capture time of 40 sec and a flow rate of […]. The chip was washed with buffer until the baseline leveled off, then gradient-diluted MASP-2 antigens were injected as the analytes successively to determine the affinity between Fab and different species antigens. The data were fitted by Biacore T200 Evaluation software 3.1 software in Langmuir 1:1 kinetics mode.

[10] = target: T2, Cynomolgus monkey MASP-2 D4-6 …; experiment: as above
Method: as §2

[11] = target: T3, mouse MASP-2 D4-6 recombinant protein; experiment: as above
Method: as §2

[12] = target: T4, human MASP-2 D4-6 recombinant protein; experiment: as above
Method: as §2

Binder | EC50 [1] [nM] | EC50 [2] [nM] | EC50 [3] [nM] | EC50 [4] [nM] | Kd [5] [nM] | Kd [6] [nM] | Kd [7] [nM] | Kd [8] [nM] | Kd [9] [nM] | koff [9] [s⁻¹] | kon [9] [M⁻¹ s⁻¹] | Kd [10] [nM] | Kd [11] [nM] | koff [11] [s⁻¹] | kon [11] [M⁻¹ s⁻¹] | Kd [12] [nM] | koff [12] [s⁻¹] | kon [12] [M⁻¹ s⁻¹] | koff [10] [s⁻¹] | kon [10] [M⁻¹ s⁻¹]
B1 | 30.2 | 0.016 | 30.9 | 0.022 | 1.29 | 214 | 0.07 |  |  |  |  |  |  |  |  |  |  |  |  | 
B2 |  | 0.003 | 0.287 | 0.004 | 24.8 | 218 | 0.108 |  |  |  |  |  |  |  |  |  |  |  |  | 
B3 | 0.021 | 0.008 | 0.023 | 0.012 | 0.92 | 499 | 0.12 | 167 |  |  |  |  |  |  |  |  |  |  |  | 
B4 | 1.44 | 0.014 | 0.947 | 0.015 | 0.078 | 632 | 0.002 |  |  |  |  |  |  |  |  |  |  |  |  | 
B5 |  | 0.043 |  | 0.033 | 0.01 | 767 | 0.09 | 162 |  |  |  |  |  |  |  |  |  |  |  | 
B6 |  |  |  |  |  |  |  |  | 0.546 | 0.00182 | 3.34e+06 | 4.66 | 18 | 1.16 | 6.44e+07 | 0.172 | 0.000163 | 948000 |  | 
B7 |  |  |  |  |  |  |  |  | 5.06 | 0.00931 | 1.84e+06 | 0.109 | 1.76 | 0.00811 | 4.61e+06 | 0.0407 | 8.75e-05 | 2.15e+06 | 0.000181 | 1.66e+06
B8 | 4.3 | 0.014 | 1.97 | 0.014 | 0.063 | 487 | 0.008 |  |  |  |  |  |  |  |  |  |  |  |  | 
B9 | 1.62 | 0.038 | 4.39 | 0.025 | 0.051 | 476 | 0.067 | 1040 |  |  |  |  |  |  |  |  |  |  |  | 
